Series [1] has as its system MS2 coat protein. Nature of the series: apparent KD of MS2 coat protein; designed switch direction (-1 OFF switch, 1 ON switch): -1; higher = weaker reporter binding. To be noted: Eterna round: R98. As to the method:
(§1)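 RNA-MaP: designed FMN/MS2 RNA switches (84 nt design region) are transcribed on-chip within common flanks and titrated with SNAP-549-labelled MS2 coat protein (about 1-3000 nM) in 100 mM Tris pH 7.5, 80 mM KCl, 4 mM MgCl2, without or with 200 uM FMN. Median apparent KD per design; activation ratio = KD,OFF / KD,ON.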

Series [2] relates to MS2 coat protein. Nature of the series: apparent KD of MS2 coat protein; designed switch direction (-1 OFF switch, 1 ON switch): 1; higher = weaker reporter binding. To be noted: Eterna round: R98. As to the method:
as §1

With “GCGUGUGGAUCAGGAUAUUACAUGAGGAUCACCCAUGUAGGCAUGAGGGUCACCCGUGUUGUGUGUAAGAAGGGAUCGCCCGUG [Exclusion2]”, the “apparent KD of MS2 coat protein” value came to 74.1 nM in series [1] (input ligand: FMN 200 uM) and 46 nM in series [1] (input ligand: none).
As to “GGAUCCAUCACAGGAUAUGCUGGACUUUGUCCAGCAGAAGGGUGAAACAUGAGGAUCACCCAUGUAAAGGAUCCUAUAUUUAAU [Denovo 26]”, the “apparent KD of MS2 coat protein” value in series [2] (input ligand: FMN 200 uM) was found to be 34.3 nM; in series [2] (input ligand: none) it was 291 nM.
As for “GUAGCUAUCGCAGGAUAUCCUCAGGCGAAAGCCACAUGAGGAUCACCCAUGUAAUUAAAGAAAUUGGAGAAGGGCGAUAGCUAC [jl-sng2-2.38 Eli mod]”, the “apparent KD of MS2 coat protein” value in series [2] (input ligand: FMN 200 uM) worked out at 36.4 nM; in series [2] (input ligand: none) it was 571 nM.
For “CCCUUUAGAAAAGGGACAUGAGGAUCACCCAUGUAGGCUGCACAGGAUAUCGAUCGGAGGCGGUACGAGAAGGGUGACGUCAUU [Zaarqu]”, in that order: 64 nM and 52.3 nM.
For “CAUAUAUGGUGAGGAUAUGCAAAGGAUCACCUUGUAGAAGGCAUCAGGGUAGAAGGUGCAAGGAUCACCUGUAAGGAUAUAUCC [pwkr2 ssNG1 DX.26]”, in that order: 412 nM and 1630 nM.
Take “AGCGGUGCGUGUGUUGUGACACAUGAGGAUCACCCAUGUAGGAAGGAUAUGCAGUUGGGCACGCGGCAGAAGGUCCGACAUGGA [Riuscein]”: the “apparent KD of MS2 coat protein” value in series [1] (input ligand: FMN 200 uM) worked out at 58.6 nM; in series [1] (input ligand: none) it was 529 nM.
Take “GGACUCACUUGAGGAUAUCGAGUGGAAUACACUCGAGAAGGCAGGGAAACCUGAGGAUCACCCAGGUAAGAGUCCAAUAAUAAA [Same State NG1 - A3C, U17G Submission 2C]”: the “apparent KD of MS2 coat protein” value is 18.7 nM in series [2] (input ligand: FMN 200 uM) and 43.4 nM in series [2] (input ligand: none).
For “GCUGCUAUCGCAGGAUAUUACAUGGGAAAGAAUACAUGAGGAUCACCCAUGUAAAAGAUCGUAAAUAAGAAGGGCGAUAGCAGC [Lame State 5 - Jieux - Same State NG 2]”, in that order: 353 nM and 329 nM.
The corresponding values for “GGACUCACUUGAGGAUAUCGAGUGGAUAACACUCGAGAAGGCAGGAAAACCUGAGGAUCACCCAGGUAAGAGUCCAAUAAUAAU [Same State NG1 - A3C, U17G Submission 3D]” are 14.4 nM and 13.2 nM.
For the sequence “AAAAUAAAGGCAGGAUAUACAUGAAUAAAUAAAAUAAUAUAAAAUAAAACAUGAGGAUCACCCAUGUAGAAGGGCCAAAAUAAA [LRO022_Exclusion NG 2]”, the “apparent KD of MS2 coat protein” value is 187 nM in series [1] (input ligand: FMN 200 uM) and 83.3 nM in series [1] (input ligand: none).

For the origin of these results see the supplement of paper PMC9170038.
